Bridge positions count the residues as written; N and C are the ends. Square brackets hold non-standard residues; d marks the D form. Ends that are not written are not given here. * marks the point of attachment. Acetyl(2-(4-imidazolyl)) = O=C(Cc1c[nH]cn1)*; Aib = CC(C)(N)C(=O)O
B1: Triple agonist of SEQ ID NO: 67 (peptide)
peptide: Y[Aib]QGTFTSDYSKYLDECAAKDFVQWLLDHHPSSGQPPPS
modifications: bridge (positions not given here); ends not checked; also: ring formation between underlined amino acids, places not given here

molecular target: human GLP-1 receptor (human, UniProt P43220 24-463); experiment: cell-based or functional assay

Binder	In vitro activity compared to native peptide (%) vs GLP-1
Y[Aib]QGTFTSDYSKYLDEKAAKEFVQWLLDHHPSSGQPPPSC (bridge 16-20) [Triple agonist of SEQ ID NO: 75]	35.1%
{Acetyl(2-(4-imidazolyl))}-[Aib]EGTFTSDYSIAMDEIHQKDFVDWLLAEC (bridge 15-19) [Triple agonist of SEQ ID NO: 84]	4.2%
Y[Aib]QGTFTSDYSKCLDERAAKEFVQWLLDHHPSSGQPPPS (bridge 16-20) [Triple agonist of SEQ ID NO: 69]	24.3%
Y[Aib]QGTFTSDCSKYLDERAAKDFVQWLLDHHPSSGQPPPS (bridge 16-20) [Triple agonist of SEQ ID NO: 72]	11.5%
H[Aib]QGTFTSDVSKYLDGQAAQEFVAWLLAGC [Triple agonist of SEQ ID NO: 9]	32.1%
H[Aib]EGTFTSDYSIAMDEIHQKDFVNWLLAQKC (bridge 16-20) [Triple agonist of SEQ ID NO: 79]	41.5%
H[Aib]EGTFTSDYSIAMDEIHQKDFVDWLLAEKC (bridge 16-20) [Triple agonist of SEQ ID NO: 80]	8.1%
{Acetyl(2-(4-imidazolyl))}-[Aib]QGTFTSDYSKYLDEKRQKEFVQWLLNTC (bridge 15-19) [Triple agonist of SEQ ID NO: 81]	7.8%
{Acetyl(2-(4-imidazolyl))}-[Aib]QGTFTSDYSKYLDECRAKEFVQWLLDHHPSSGQPPPS (bridge 15-19) [Triple agonist of SEQ ID NO: 73]	22.6%
{Acetyl(2-(4-imidazolyl))}-[Aib]QGTFTSDYSKYLDEKRQKEFVQWLLDTKC (bridge 15-19) [Triple agonist of SEQ ID NO: 89]	7.1%
Y[Aib]QGTFTSDYSKYLDEKAAKDFVQWLLDHHPSSGQPPPSC (bridge 16-20) [Triple agonist of SEQ ID NO: 77]	38.7%
{Acetyl(2-(4-imidazolyl))}-[Aib]EGTFTSDYSIAMDEIHQKDFVNWLLAQC (bridge 15-19) [Triple agonist of SEQ ID NO: 83]	47.3%
H[Aib]QGTFTSDYSKYLDEKRQKEFVQWLLDTKC (bridge 16-20) [Triple agonist of SEQ ID NO: 78]	51%
{Acetyl(2-(4-imidazolyl))}-[Aib]QGTFTSDYSIAMDEIHQKDFVNWLLNTC (bridge 15-19) [Triple agonist of SEQ ID NO: 87]	0.9%
{Acetyl(2-(4-imidazolyl))}-[Aib]QGTFTSDYSKCLDEKRAKEFVQWLLDHHPSSGQPPPS (bridge 15-19) [Triple agonist of SEQ ID NO: 74]	12.9%
Y[Aib]QGTFTSDYSKYLDERACKDFVQWLLDHHPSSGQPPPS (bridge 16-20) [Triple agonist of SEQ ID NO: 71]	90.1%
{Acetyl(2-(4-imidazolyl))}-[Aib]QGTFTSDYSKYLDEKRQKEFVQWLLNTKC (bridge 15-19) [Triple agonist of SEQ ID NO: 88]	9.6%
{Acetyl(2-(4-imidazolyl))}-[Aib]QGTFTSDYSIAMDEIHQKDFVNWLLAQC (bridge 15-19) [Triple agonist of SEQ ID NO: 85]	4.3%
{Acetyl(2-(4-imidazolyl))}-[Aib]QGTFTSDYSKYLDEKRQKEFVQWLLDTC (bridge 15-19) [Triple agonist of SEQ ID NO: 82]	9.5%
{Acetyl(2-(4-imidazolyl))}-[Aib]QGTFTSDYSKYLDEKRQKEFVNWLLAQC (bridge 15-19) [Triple agonist of SEQ ID NO: 86]	28.4%
Y[Aib]QGTFTSDYSKYLDEKRAKDFVQWLLDHHPSSGQPPPSC (bridge 16-20) [Triple agonist of SEQ ID NO: 76]	10.3%
B1	28.5%
H[Aib]QGTFTSDVSKYLDGQAAQEFVAWLLKGC [Triple agonist of SEQ ID NO: 8]	14.2%
Y[Aib]QGTFTSDYSKCLDEKAAKEFVQWLLDHHPSSGQPPPS (bridge 16-20) [Triple agonist of SEQ ID NO: 68]	27.9%
Y[Aib]QGTFTSDYSKCLDEKRAKDFVQWLLDHHPSSGQPPPS (bridge 16-20) [Triple agonist of SEQ ID NO: 70]	15.1%

molecular target: human GCG receptor (human, UniProt P47871 26-477); experiment: cell-based or functional assay
Sequence (P47871 26-477): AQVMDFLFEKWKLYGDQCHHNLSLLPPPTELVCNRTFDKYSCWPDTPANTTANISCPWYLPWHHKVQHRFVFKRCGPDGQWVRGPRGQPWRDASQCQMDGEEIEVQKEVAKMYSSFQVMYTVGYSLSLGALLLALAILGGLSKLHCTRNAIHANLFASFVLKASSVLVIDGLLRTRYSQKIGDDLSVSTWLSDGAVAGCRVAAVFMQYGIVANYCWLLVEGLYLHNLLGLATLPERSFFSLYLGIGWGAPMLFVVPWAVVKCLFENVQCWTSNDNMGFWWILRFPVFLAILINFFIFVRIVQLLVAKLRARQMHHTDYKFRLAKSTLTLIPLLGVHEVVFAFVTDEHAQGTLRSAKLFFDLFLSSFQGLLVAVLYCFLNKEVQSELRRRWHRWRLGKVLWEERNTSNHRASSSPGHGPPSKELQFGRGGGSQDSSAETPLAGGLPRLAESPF

Binder	In vitro activity compared to native peptide (%) vs Glucagon
Y[Aib]QGTFTSDYSKYLDEKAAKEFVQWLLDHHPSSGQPPPSC (bridge 16-20) [Triple agonist of SEQ ID NO: 75]	8.5%
{Acetyl(2-(4-imidazolyl))}-[Aib]EGTFTSDYSIAMDEIHQKDFVDWLLAEC (bridge 15-19) [Triple agonist of SEQ ID NO: 84]	< 0.1%
Y[Aib]QGTFTSDYSKCLDERAAKEFVQWLLDHHPSSGQPPPS (bridge 16-20) [Triple agonist of SEQ ID NO: 69]	9.6%
Y[Aib]QGTFTSDCSKYLDERAAKDFVQWLLDHHPSSGQPPPS (bridge 16-20) [Triple agonist of SEQ ID NO: 72]	1%
H[Aib]QGTFTSDVSKYLDGQAAQEFVAWLLAGC [Triple agonist of SEQ ID NO: 9]	0.13%
H[Aib]EGTFTSDYSIAMDEIHQKDFVNWLLAQKC (bridge 16-20) [Triple agonist of SEQ ID NO: 79]	4.9%
H[Aib]EGTFTSDYSIAMDEIHQKDFVDWLLAEKC (bridge 16-20) [Triple agonist of SEQ ID NO: 80]	0%
{Acetyl(2-(4-imidazolyl))}-[Aib]QGTFTSDYSKYLDEKRQKEFVQWLLNTC (bridge 15-19) [Triple agonist of SEQ ID NO: 81]	0.3%
{Acetyl(2-(4-imidazolyl))}-[Aib]QGTFTSDYSKYLDECRAKEFVQWLLDHHPSSGQPPPS (bridge 15-19) [Triple agonist of SEQ ID NO: 73]	5.4%
{Acetyl(2-(4-imidazolyl))}-[Aib]QGTFTSDYSKYLDEKRQKEFVQWLLDTKC (bridge 15-19) [Triple agonist of SEQ ID NO: 89]	0.7%
Y[Aib]QGTFTSDYSKYLDEKAAKDFVQWLLDHHPSSGQPPPSC (bridge 16-20) [Triple agonist of SEQ ID NO: 77]	12.2%
{Acetyl(2-(4-imidazolyl))}-[Aib]EGTFTSDYSIAMDEIHQKDFVNWLLAQC (bridge 15-19) [Triple agonist of SEQ ID NO: 83]	1.3%
H[Aib]QGTFTSDYSKYLDEKRQKEFVQWLLDTKC (bridge 16-20) [Triple agonist of SEQ ID NO: 78]	14%
{Acetyl(2-(4-imidazolyl))}-[Aib]QGTFTSDYSIAMDEIHQKDFVNWLLNTC (bridge 15-19) [Triple agonist of SEQ ID NO: 87]	< 0.1%
{Acetyl(2-(4-imidazolyl))}-[Aib]QGTFTSDYSKCLDEKRAKEFVQWLLDHHPSSGQPPPS (bridge 15-19) [Triple agonist of SEQ ID NO: 74]	0.9%
Y[Aib]QGTFTSDYSKYLDERACKDFVQWLLDHHPSSGQPPPS (bridge 16-20) [Triple agonist of SEQ ID NO: 71]	12.7%
{Acetyl(2-(4-imidazolyl))}-[Aib]QGTFTSDYSKYLDEKRQKEFVQWLLNTKC (bridge 15-19) [Triple agonist of SEQ ID NO: 88]	0.3%
{Acetyl(2-(4-imidazolyl))}-[Aib]QGTFTSDYSIAMDEIHQKDFVNWLLAQC (bridge 15-19) [Triple agonist of SEQ ID NO: 85]	< 0.1%
{Acetyl(2-(4-imidazolyl))}-[Aib]QGTFTSDYSKYLDEKRQKEFVQWLLDTC (bridge 15-19) [Triple agonist of SEQ ID NO: 82]	1.1%
{Acetyl(2-(4-imidazolyl))}-[Aib]QGTFTSDYSKYLDEKRQKEFVNWLLAQC (bridge 15-19) [Triple agonist of SEQ ID NO: 86]	0.4%
Y[Aib]QGTFTSDYSKYLDEKRAKDFVQWLLDHHPSSGQPPPSC (bridge 16-20) [Triple agonist of SEQ ID NO: 76]	47.6%
B1	46.2%
H[Aib]QGTFTSDVSKYLDGQAAQEFVAWLLKGC [Triple agonist of SEQ ID NO: 8]	0.1%
Y[Aib]QGTFTSDYSKCLDEKAAKEFVQWLLDHHPSSGQPPPS (bridge 16-20) [Triple agonist of SEQ ID NO: 68]	8.8%
Y[Aib]QGTFTSDYSKCLDEKRAKDFVQWLLDHHPSSGQPPPS (bridge 16-20) [Triple agonist of SEQ ID NO: 70]	71.3%

molecular target: T1, human GIP receptor (human, UniProt P48546 22-466); experiment: cell-based or functional assay
T1 sequence (looked up): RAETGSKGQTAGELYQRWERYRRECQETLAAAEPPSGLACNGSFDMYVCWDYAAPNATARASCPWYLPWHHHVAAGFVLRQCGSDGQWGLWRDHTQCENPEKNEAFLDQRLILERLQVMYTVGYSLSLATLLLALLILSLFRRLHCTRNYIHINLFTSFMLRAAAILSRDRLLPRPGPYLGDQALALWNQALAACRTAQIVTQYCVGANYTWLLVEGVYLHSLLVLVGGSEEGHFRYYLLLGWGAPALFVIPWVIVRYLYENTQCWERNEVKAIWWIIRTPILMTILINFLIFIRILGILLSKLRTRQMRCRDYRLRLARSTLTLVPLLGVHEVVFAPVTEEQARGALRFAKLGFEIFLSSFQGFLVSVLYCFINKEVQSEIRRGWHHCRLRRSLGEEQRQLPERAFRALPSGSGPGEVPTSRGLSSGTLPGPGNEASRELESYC

Binder	In vitro activity compared to native peptide (%) vs GIP
Y[Aib]QGTFTSDYSKYLDEKAAKEFVQWLLDHHPSSGQPPPSC (bridge 16-20) [Triple agonist of SEQ ID NO: 75]	18%
{Acetyl(2-(4-imidazolyl))}-[Aib]EGTFTSDYSIAMDEIHQKDFVDWLLAEC (bridge 15-19) [Triple agonist of SEQ ID NO: 84]	< 0.1%
Y[Aib]QGTFTSDYSKCLDERAAKEFVQWLLDHHPSSGQPPPS (bridge 16-20) [Triple agonist of SEQ ID NO: 69]	62.8%
Y[Aib]QGTFTSDCSKYLDERAAKDFVQWLLDHHPSSGQPPPS (bridge 16-20) [Triple agonist of SEQ ID NO: 72]	1.6%
H[Aib]QGTFTSDVSKYLDGQAAQEFVAWLLAGC [Triple agonist of SEQ ID NO: 9]	< 0.1%
H[Aib]EGTFTSDYSIAMDEIHQKDFVNWLLAQKC (bridge 16-20) [Triple agonist of SEQ ID NO: 79]	1.4%
H[Aib]EGTFTSDYSIAMDEIHQKDFVDWLLAEKC (bridge 16-20) [Triple agonist of SEQ ID NO: 80]	0.1%
{Acetyl(2-(4-imidazolyl))}-[Aib]QGTFTSDYSKYLDEKRQKEFVQWLLNTC (bridge 15-19) [Triple agonist of SEQ ID NO: 81]	< 0.1%
{Acetyl(2-(4-imidazolyl))}-[Aib]QGTFTSDYSKYLDECRAKEFVQWLLDHHPSSGQPPPS (bridge 15-19) [Triple agonist of SEQ ID NO: 73]	3%
{Acetyl(2-(4-imidazolyl))}-[Aib]QGTFTSDYSKYLDEKRQKEFVQWLLDTKC (bridge 15-19) [Triple agonist of SEQ ID NO: 89]	< 0.1%
Y[Aib]QGTFTSDYSKYLDEKAAKDFVQWLLDHHPSSGQPPPSC (bridge 16-20) [Triple agonist of SEQ ID NO: 77]	35.5%
{Acetyl(2-(4-imidazolyl))}-[Aib]EGTFTSDYSIAMDEIHQKDFVNWLLAQC (bridge 15-19) [Triple agonist of SEQ ID NO: 83]	0.4%
H[Aib]QGTFTSDYSKYLDEKRQKEFVQWLLDTKC (bridge 16-20) [Triple agonist of SEQ ID NO: 78]	0.12%
{Acetyl(2-(4-imidazolyl))}-[Aib]QGTFTSDYSIAMDEIHQKDFVNWLLNTC (bridge 15-19) [Triple agonist of SEQ ID NO: 87]	< 0.1%
{Acetyl(2-(4-imidazolyl))}-[Aib]QGTFTSDYSKCLDEKRAKEFVQWLLDHHPSSGQPPPS (bridge 15-19) [Triple agonist of SEQ ID NO: 74]	1%
Y[Aib]QGTFTSDYSKYLDERACKDFVQWLLDHHPSSGQPPPS (bridge 16-20) [Triple agonist of SEQ ID NO: 71]	94.7%
{Acetyl(2-(4-imidazolyl))}-[Aib]QGTFTSDYSKYLDEKRQKEFVQWLLNTKC (bridge 15-19) [Triple agonist of SEQ ID NO: 88]	< 0.1%
{Acetyl(2-(4-imidazolyl))}-[Aib]QGTFTSDYSIAMDEIHQKDFVNWLLAQC (bridge 15-19) [Triple agonist of SEQ ID NO: 85]	0.3%
{Acetyl(2-(4-imidazolyl))}-[Aib]QGTFTSDYSKYLDEKRQKEFVQWLLDTC (bridge 15-19) [Triple agonist of SEQ ID NO: 82]	< 0.1%
{Acetyl(2-(4-imidazolyl))}-[Aib]QGTFTSDYSKYLDEKRQKEFVNWLLAQC (bridge 15-19) [Triple agonist of SEQ ID NO: 86]	0.2%
Y[Aib]QGTFTSDYSKYLDEKRAKDFVQWLLDHHPSSGQPPPSC (bridge 16-20) [Triple agonist of SEQ ID NO: 76]	11.7%
B1	39.8%
H[Aib]QGTFTSDVSKYLDGQAAQEFVAWLLKGC [Triple agonist of SEQ ID NO: 8]	< 0.1%
Y[Aib]QGTFTSDYSKCLDEKAAKEFVQWLLDHHPSSGQPPPS (bridge 16-20) [Triple agonist of SEQ ID NO: 68]	107%
Y[Aib]QGTFTSDYSKCLDEKRAKDFVQWLLDHHPSSGQPPPS (bridge 16-20) [Triple agonist of SEQ ID NO: 70]	64.4%
